Test results taken from PMC7382501 (Nature Communications, 2020).

B1: FasR from Mycobacterium tuberculosis, full-length (hexa-histidine-TEV-tagged construct, tag cleaved) (natural protein)
chain: MSDLAKTAQRRALRSSGSARPDEDVPAPNRRGNRLPRDERRGQLLVVASDVFVDRGYHAAGMDEIADRAGVSKPVLYQHFSSKLELYLAVLHRHVENLVSGVHQALSTTTDNRQRLHVAVQAFFDFIEHDSQGYRLIFENDFVTEPEVAAQVRVATESCIDAVFALISADSGLDPHRARMIAVGLVGMSVDCARYWLDADKPISKSDAVEGTVQFAWGGLSHVPLTRS
B2: His-tagged FasR (FasRwt, from pET28_fasRH) (natural protein)
chain: B1 chain
notes: not shown: His6, N-terminal, kept

Target: the molecule itself
Test: SEC

Row | Protein | stoichiometry N
1 | B1 | 2
2 | B2 | 2
